US20180016325

B1: staphopain B (protein)
chain: DQVQYENTLKNFKIREQQFDNSWCAGFSMAALLNATKNTDTYNAHDIMRTLYPEVSEQDLPNCATFPNQMIEYGKSQGRDIHYQEGVPSYNQVDQLTKDNVGIMILAQSVSQNPNDPHLGHALAVVGNAKINDQEKLIYWNPWDTELSIQDADSSLLHLSFNRDYNWYGSMIGY
B2: staphopain A (protein)
chain: YNEQYVNKLENFKIRETQGNNGWCAGYTMSALLNATYNTNKYHAEAVMRFLHPNLQGQQFQFTGLTPREMIYFEQTQGRSPQLLNRMTTYNEVDNLTKNNKGIAILGSRVESRNGMHAGHAMAVVGNAKLNNGQEVIIIWNPWDNGFMTQDAKNNVIPVSNGDHYQWYSSIYGY

Assays:
[1] = target: MP-LAFG-PABC-(piperazinoBOR) LA-104 as antibody conjugate AAC-193
[2] = target: thioFAB 4497 MP-LAFAA-QSY7
[3] = target: thioFAB 4497 MP-LAFGA-QSY7
[4] = target: thioFAB S4497-MC-GGAFAGGG-(pipBOR)

Row | Protein | Percent cleavage pH 5 [1] [%] | Percent cleavage pH 7.2 [1] [%] | Percent cleavage pH 7.2 [2] [%] | Percent cleavage pH 7.2 [3] [%] | cleavage of the linker (LC-MS) [4] | percent cleavage at pH 7.2 [1]
1 | B1 | 100 | 100 | 100 | 100 | Staphopain B was found to cleave the linker at the same site as the active protease purified from Wood46 supernatant | –
2 | B2 | 100 | 46 | – | – | – | Staphopain A showed 100% cleavage at pH5 and 64% cleavage at pH 7.2
